Laboratory results as given in publication PMC8972253.

Target: HER2 receptor (human (endogenous in SKBR3)) (UniProt P04626)
Experiment: BLI

Thiomab Tras-LC-V205C
Kd: 1 nM
